The values below come from patent US7094873.

The target in assay [1] is Hsp90 in rabbit reticulocyte lysate (Hsp90 heterocomplex) (rabbit) (UniProt P30947). Put plainly: reticulocyte lysate with 35S-labeled GR, with or without CHIP, immunoprecipitation of Hsp90 with 3G3; displaced molecule: GR.
Assay [2] has the same target. Kind of assay: rabbit reticulocyte lysate with recombinant CHIP, immunoprecipitation of Hsp90 with 3G3, Western blot; displaced molecule: Hop. For orientation: In western blotting, separated proteins are transferred to a membrane and probed.

Chain of Hsp90 in rabbit reticulocyte lysate (Hsp90 heterocomplex) (rabbit) (P30947 2-726, one chain of several): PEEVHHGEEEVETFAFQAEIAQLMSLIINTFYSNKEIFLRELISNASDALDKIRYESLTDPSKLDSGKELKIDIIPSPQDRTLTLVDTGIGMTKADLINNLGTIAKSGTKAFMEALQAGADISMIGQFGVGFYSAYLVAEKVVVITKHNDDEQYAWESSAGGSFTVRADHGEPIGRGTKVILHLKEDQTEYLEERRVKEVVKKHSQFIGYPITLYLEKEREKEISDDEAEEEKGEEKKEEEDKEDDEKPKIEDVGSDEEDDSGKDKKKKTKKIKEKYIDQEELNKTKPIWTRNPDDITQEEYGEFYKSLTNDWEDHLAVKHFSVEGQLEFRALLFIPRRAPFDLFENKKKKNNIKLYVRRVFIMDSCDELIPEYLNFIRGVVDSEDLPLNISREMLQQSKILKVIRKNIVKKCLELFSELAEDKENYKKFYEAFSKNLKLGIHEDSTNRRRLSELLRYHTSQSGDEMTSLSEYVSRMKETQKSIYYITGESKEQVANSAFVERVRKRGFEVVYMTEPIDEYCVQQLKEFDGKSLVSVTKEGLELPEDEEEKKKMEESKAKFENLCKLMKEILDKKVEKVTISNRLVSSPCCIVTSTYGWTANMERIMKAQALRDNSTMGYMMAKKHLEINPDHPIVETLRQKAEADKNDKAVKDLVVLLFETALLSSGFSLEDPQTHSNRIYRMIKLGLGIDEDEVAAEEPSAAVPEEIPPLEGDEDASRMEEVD

As for “Recombinant hCHIP (His-tagged fusion from plasmid pET-hCHIP, expressed in E. coli BL21) (from UniProt Q9UNE7 1-303)”, the decrease of GR co-precipitated with Hsp90 in assay [1] was 50%. The decrease of the amount of Hop associated with the Hsp90 complex in assay [2] is 50%.
